The nanobody polyreactivity screen of Harvey et al. (2022)

Assay: yeast display, Sf9 membrane polyspecificity reagent, FACS + sequencing; frameworks hold sequencing errors
In short: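 Synthetic nanobody libraries on Saccharomyces cerevisiae BJ5465 were galactose-induced for 36–48 hours, stained 1 hour at 4 °C with 10% biotinylated, detergent-solubilized Sf9 membrane reagent and enriched on streptavidin microbeads. FACS then separated cells into low and high (top ~1%) gates by anti-HA (expression) and streptavidin (reagent binding) fluorescence. Genes were colony-PCR amplified, MiSeq 2 × 250 sequenced and CDR-length filtered. A clone's polyreactivity label is that of its gate of origin.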

Sequence	polyreactivity (PSR sort gate)
QVKLVESGGGLVQAGGSLRLSCADSGSIFVPNTRGWYRQAPGKERELVAAITAGGSTDYADSVKGRFTISRDNAKNTVYLQMNSLKPEDTAVYYCNADVYSWVSGKEGDYWGQGTQVTVTS	low polyreactivity
QVKLVESGGGLVQAGGSLRLSCASSGFTFFHYAKGWYRQAPGKERELVAAISWSGGSTYYADTVKGRFTISRDNAKNTVYLQMNSLKPEDTAVYYCAADGGSTAFDYWGQGTQVTVSS	low polyreactivity
QVKLVESGGGLVQAGGSLRLSCPASGITFVYYAMGGYRQAPGKERELVAAISSAGSSTYYADSVKGRFTISRDNAKNTVYLQMNSLKPEDTAVYYCAATYYVPRLQWMDYWGQGTQVTVSS	low polyreactivity
QVKLVESGGGLVQAGGSLRLSSADSGFIFRRYAMGWYRQAPGKERELVAAINYSGGSTYYADSVKGRFTISRDHAKNTVYLQMNSPKPEYTAVYYCNAYGLRYYEYDYWGQGTQVTVSS	low polyreactivity
QVKLVESGGGLVQAGGSLRLTCAASGIIFSWYAMGWYRQAPGKERELVAAISWSGGRTYYADSVKGRFTISRDNAKNSFYLQMNSLKPEDTAVYYCAAERNLFSHWEARYFWGQGTQVTVSS	high polyreactivity
QVKLVESGGGLVQAGGSLRLTCAAYGFTFAGYTLGCYRQAPGKERELVAAITSSGGSTYYADYVKGRFTISRDNAKNTVYLQMNSLKPEDTAVYYCAARSHSTYYYWGQGTQVTVSS	high polyreactivity
QVKLVESGGGLVQARGSLRLSCAASGRIFTIYAKGWYRPAPGKERELVAAITRGGNTNYADSVKGRFTISRDNAKNTVYLQMNSLKPEDTAVYNCAARANVYTKKRDYWGQGTQVTVSS	high polyreactivity
QVKLVESGRALVQAGCSLPLSCAASGRIFTRYAMGWYRQAPGKERELVAAISYGGGGTYYADSVKGSFTISRDNAKNTVYVQMNSLKPEDTAVYYCATDDPLSQINEQGMDYWGQGTQVTVSS	low polyreactivity
QVKLVESGRGLVQAGCSLRITCAASGGTLDNNAMGRYRQAPGKERELVAAISSSGSRTYYADSVKGRFTISRDHAKNSVYLQMNSLKPEDTAVYYCAARRYVRRYYWGQGTQVTVSS	high polyreactivity
QVKLVETGGGLVQAGGSLRLSCAASGITFAYYAMGWYRQAPGKERELVARISRRGGSTYYADSVKGRFTISRDNAKNNVYLQMNSLKPEDTAVYYCAARVVVPKPYVDGDYWGEGTQVTVSS	high polyreactivity
QVLLEESVGGLDQAGGSLRLSCAASGFNFQTNAMGRYRQAPGKEREFVAAISDSGGSTNYADSVKGRFTISRDNAKNTGYLQMNSLKPEDSAVYYCATSFAVYDYDYWGQGTQVTVSS	low polyreactivity
QVLLLESGGGVVQAGGSHRLRCAASGRIFCTNTMGWYRQAPGKERELVAVISSSGDSTYYADSVKGRFTISRDNAKNTVYLQINSLKPEDTAVYYCAKGNNWISRLMDYWGQGTQVTVSS	low polyreactivity
QVLLQESGGGLVQAGGSLRLCCSASGYISGDQFMGWYRQAPGKEREFVAGIGNGTNTNYADSVKGRFTTSRDNEKNTVYLQMNIRKPEDTAVYYCAADPSDGSTLAYWGQGTQVTVSS	high polyreactivity
QVLLQESGGLVQAGCSLRMSCAASGSISTALSMGWYRQAPGKERELVATISDGASTNYADSVKGRFTISRVNAKNTVYLQMNSLKPEDTEVYYCAAQSQYRPDHRYWGQGTQVTVSS	high polyreactivity
QVLLVESGGGLFQAGGRLRVSCAASGSTLLRYAMGWYRQAPGKERELVAAISGTGSRTYYADSVKGRFTISRDNAKNTVYLKMISLNPEDTAVYYCYACPYRLTEIDYWGQGTPVTVSS	high polyreactivity
QVLLVESGGGLVQAAGSLRLSSAASGRIFASYPLGWYRQAPGKERELVAAISKSGGRTYYADSVKGRFTISRDNAKNTVYVQMNSLKPVDTAVYDCAAFFWTRSGTPNFDYWGQGTQVTVSS	high polyreactivity
QVLLVESGGGLVQAGGSLRLSCAASGFIFDVYAMGWYRQAPGKERELVAAISSSGGRKYYADSVKGRFTISRDNAKNTVYLQMNSLKPEDTAVYYCAAKTHSRTKVYTADYWGQGTQVTVSS	high polyreactivity
QVLLVESGGGLVQAGGSLRLSCAASGITFAYYVMGWYRQAPGKERELVAAINWSGGSTYYADSVKGRFTISRDNAKNTVYLQMNSLKPEDPAVYYCAADWSTWYGEKFYWGQGTQVTVSS	high polyreactivity
QVLLVESGGGLVQAGGSLRLSCAASGRILYHYAMGWYRQAPGKERELVAAITRGGGTNYADSVKGRFTISRDNAKNTVYLQMNSLKPEDTAVYYCNADRFIVTRSRRGDYWGQGTQVTVSS	low polyreactivity
QVLLVESGGGLVQAGGSLRLSCAASGRTFGTNGMGWYRQAPGKERELVAVITWTGGSTYYADSVKGRFTITRDNEKNTVYLQMNSLKPEDTAVYYCAAKYSHLGYNYWGQGTQVTVSS	high polyreactivity
QVLLVESGGGLVQAGGSLRLSCAASGSILRTYAMGWYRQAPGKERELVAAITWSGGSTRYADSVKGRFTISRDNAKNTVYLQMNSLKPEDTAVYYCNARYRVYSYALYKYGYWGQGTQVTVSS	high polyreactivity
QVLLVESGGGLVQAGGSLRLSCAASGSTFYYYGMGWYRQAPGKEREFVAAISWGGGSTRYADSVKGRITISRDNAKNTVYLQMNSLKPEDTAVYYCAARYPHYDYYYWGQGTQVTVSS	high polyreactivity

Sequence	polyreactivity (PSR sort gate)
QVLLVESGGGLVQAGGSLRLSCAASGYIFNRYVMGWTIQAPGKERELVAAIYIRGGSTFYSDSVKGCFTISRDNAKYTVYLQMNSLKPDDSAVYYCDDGRYGDYGYWGQGTQLTVSS	high polyreactivity
QVLLVESGGGLVQAGGSLRLSCSASGITFEYYAMGWYRQAPGKERELVADIDTGGSTNYADSVKGRFTISRDNAKNTVYLQMNSLKPEDTAVYYCAADWSWWDAEDYHFEYDYWGQGTQVTVSS	low polyreactivity
QVLLVESGGGLVQAGGSLRLSGAASGSTFYNYAMGWNRQAPGKERELVASISDDGSTNYADSVKGRFTISRDNAKNTVYLQMNSLKQVDSAVYSCAAVWWLQFGSAWYQMGYWGQGTQVTVSS	low polyreactivity
QVNLVDSGGRLVQAGGSLRLSCAASGRIFYRYAMGWYIQAPGKERELVAAISRRGGSTYYADSVKGRFTISRDNAKNTVYLQMNSLNPEDTAVYYCNVYRSAFSYDSWGQCTQVTVSS	high polyreactivity
QVPLQESGGGLVQAGGSLRLSCAASGTISYAPHMGWYRQAPGKERELVAGITIGGTTYYADSVKGRFTISRDNAKNTVYLQMNSLSPGDTAVYYCAAHSEQYTPFYYWGQGTQVTVSS	low polyreactivity
QVPLVESGGGLVQAGGILRLSSAASGFIFTYYAMGWYRQAPGKERELVAAISASGGSTYYADSVKGRFTISRDYAKNTVYIQLYSLEPEDSSVYYCNKLYQQRAWETFSWGGYWGQGTQVTVSS	high polyreactivity
QVPLVESGGGLVQAGGRLRLSCAASGSTLLNSPMGWYRKAPGKERELVAAISSSGGRTYYPDSVKGRFTISRDNAKNTVYLQMNSLTPEDTEVYYCNKVLGYPKTFGYWGQGTQVSVSS	high polyreactivity
QVPLVESGGGLVQAGGSLRLSCAASGFTFGWYAMGWYRQAPGKERELVAAISSNGGRTSYADSVKGRFTISRDNAKNTVYLQMNSLKPEDTAVYYCNADDRYIWTYWGWTIYDYWGQGTQVTVSS	high polyreactivity
QVPLVESGGGLVQAGGSLRLSCAASGRIFIQNTMGWDSQAPGKERELVAAINRSAGSTYYADSVKGRFTISRDNAKNTVYLQMNSLKTEDTAVYYCAAYASRRYGYWGQVTQVTVSS	high polyreactivity
QVPLVESGGGLVQAGGSLRLSCAASGRIFYNYAMGWYRQAPGKERELVAAISGSGGSTYYADSVKGRFTISRDNAKNTVYLQMNSLKPEDSSVYYCSTSGPQYYSRNFDYWGQGTQVTVSS	low polyreactivity
QVPLVESGGGLVQAGGSLRLSCAASGRLFGYNTMGWYRQAPGKERELVARISYDVDSTYYADSVKGRFTISRDNAKNTVYLQMNSLKPEDTAVYYCNARRSNLGSYIEYFGFDYWGQGTQVTVSS	low polyreactivity
QVPLVESGGGLVQAGGSLRLSCAASGRNYFKYAMGWYRQAPGKERELVATITWRGSSTYYSDSVKGRFTISRDNAKNTVFLQMNSLKPEDTAVYYCAARYLYTDEYWDKFYYWGQGTQVTVSS	high polyreactivity
QVPLVESGGGLVQAGGSLRLSCAASGRTFPSNMGWYRQAPGKERELVAAISWRGGSTNYADSVKGRFTISRDNAKNTVYLQMNSLKPEDTAVYYCNARYNTQRYRFLVQGDYWGQGTQVTVSS	high polyreactivity
QVPLVESGGGLVQAGGSLRLSCAASGSIFGQYAMGWYRQAPGKERELVAAIRDGTGSTYYAVSVKGRFTISRDNAKNTVYVQMNSLKPEDRAVYYCAADYIWTSIVHYEYWGQGTEVTVSS	high polyreactivity
QVPLVESGGGLVQAGGSLRLSCAASGSIFLLYDMGWYRQAPGKERELVAAITWSGGSTYYADSVKGRFTISRDNAMNSVYLQMNSLKPEDTAVYYCAADEPYPTAYEYWGQGTQVTVSS	low polyreactivity
QVPLVESGGRLVQAGGSLRLSCAASGSTIGPYTMGWYRQAPGKERELVATISSGGSTYSADSVKGRFTISRDNEKNTVYLQMISLKPEDTAVYYCAARYRSIYDYWGQGTQVTVSS	low polyreactivity
QVPLVESGVGLVHAGGSLRISCATSGITFAYYFMGWYRQAPGKERELVAAISWTGSSTYYADSVKWRFTISRDNAKNTVYLQMNSLKQEDTAVYYCAARQRYLYDYWGQGTQVNVSS	high polyreactivity
QVPLVESGVGLVQAGGSLRISCAASGFTFSRYAMGWYRQAPGKERELVAAISRTGGRTYYADSVKGRFTITRDNAKNTVYLQMNSLKPEDTADYYCARVPVHSHLRQTYAMEYWGQGTQVTVSS	high polyreactivity
QVPLVESVGGLVQAGGSLRISCAASGSTLRGYAMGWYRKAPGKERELVAAISWRGGSTYYADSVKGRFTISRDNAKNTVYLQMNSLKPEDTAVYYCNALVAGHKYYTVTSKYDYWGQGTQLTVSS	high polyreactivity
QVQDVESGGGLVQAGGSLRLSCAAYGFIFYSYAMGWYRQAPGKERELVAAISTGDGSTTFADSVKGRFTISRDNAKNSVYLQMNSLKPEDTAVYYCNVKYRACYRTDFEYWGQGTQVTVSS	low polyreactivity
QVQFVESGGGLVQAGGSLRLSCAASGSIFYRYTMGSYRQAPGKERELVAAISSRGGSTYYADSVKGRFTISRDNAKNTVYLQMNSLKPEDTAVYYCAARYFRNPVFVIMDYWGQGTQVTVSS	high polyreactivity
